Here are results for 5 compounds from paper PMC9876797, “Structures of the holo CRISPR RNA-guided transposon integration complex” (Nature, 2022).

The target in test [1] is TnsC (ShCAST AAA+ regulator) (Scytonema hofmannii). Nature of the test: cryo-EM structure; ShCAST transpososome assembled stepwise on streptavidin beads through desthiobiotinylated target-pot DNA (Cas12k-sgRNA, S15, TniQ, TnsC, 1 mM ATP, then TnsB with donor-pot DNA), 37 °C, 20 mM HEPES pH 7.5, 250 mM KCl, 15 mM MgCl2, eluted with biotin; major (12 TnsC) and minor (13 TnsC) configurations from one data set.

The target is the same in test [2].
Target sequence in this assay (A0A8J0PCL3 entry or part of it): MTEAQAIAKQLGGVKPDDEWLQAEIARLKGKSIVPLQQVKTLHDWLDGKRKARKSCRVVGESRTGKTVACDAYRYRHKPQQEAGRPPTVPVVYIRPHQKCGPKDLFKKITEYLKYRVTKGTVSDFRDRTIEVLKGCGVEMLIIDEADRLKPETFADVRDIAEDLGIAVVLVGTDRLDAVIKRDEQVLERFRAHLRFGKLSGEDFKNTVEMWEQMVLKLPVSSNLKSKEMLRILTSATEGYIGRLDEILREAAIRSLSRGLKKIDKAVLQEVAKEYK
Test [3] addresses T1, ShCAST transpososome (TnsC in complex with TnsB, TniQ, Cas12k and S15) (Scytonema hofmannii, UniProt A0A8J0PCL3).
T1 construct: recombinant proteins from E. coli, TwinStrep-SUMO vectors; assembled on sgRNA and strand-transfer DNA; about 961 kDa; 12 TnsC (major) or 13 TnsC (minor); S15 from E. coli K-12 MG1655; with Transposase TnsB; TniQ family protein TniQ; CRISPR-associated effector Cas12k; Small ribosomal subunit protein uS15 (Escherichia coli K-12 MG1655)
Nature of the test: cryo-EM structure. The format is binding. Particulars: ATP with Mg2+ in all TnsC protomers; 1 mM ATP, 15 mM MgCl2, pH 7.5; also minor configuration 8EA4.

For test [4], the target named is TnsB (ShCAST transposase), wild type (Scytonema hofmannii). Nature of the test: cryo-EM structure; ShCAST transpososome assembled stepwise on streptavidin beads through desthiobiotinylated target-pot DNA (Cas12k-sgRNA, S15, TniQ, TnsC, 1 mM ATP, then TnsB with donor-pot DNA), 37 °C, 20 mM HEPES pH 7.5, 250 mM KCl, 15 mM MgCl2, eluted with biotin; major (12 TnsC) and minor (13 TnsC) configurations from one data set.

Values joined by “and” are separate entries in the source; they are usually repeats but may differ in a detail not shown here. Equal entries are not always repeated. Bounds are passed on as bounds.

T1 sequence (A0A8J0PCL3 entry or part of it): as above
T1 sequence (A0A979HMQ2 entry or part of it, further chain): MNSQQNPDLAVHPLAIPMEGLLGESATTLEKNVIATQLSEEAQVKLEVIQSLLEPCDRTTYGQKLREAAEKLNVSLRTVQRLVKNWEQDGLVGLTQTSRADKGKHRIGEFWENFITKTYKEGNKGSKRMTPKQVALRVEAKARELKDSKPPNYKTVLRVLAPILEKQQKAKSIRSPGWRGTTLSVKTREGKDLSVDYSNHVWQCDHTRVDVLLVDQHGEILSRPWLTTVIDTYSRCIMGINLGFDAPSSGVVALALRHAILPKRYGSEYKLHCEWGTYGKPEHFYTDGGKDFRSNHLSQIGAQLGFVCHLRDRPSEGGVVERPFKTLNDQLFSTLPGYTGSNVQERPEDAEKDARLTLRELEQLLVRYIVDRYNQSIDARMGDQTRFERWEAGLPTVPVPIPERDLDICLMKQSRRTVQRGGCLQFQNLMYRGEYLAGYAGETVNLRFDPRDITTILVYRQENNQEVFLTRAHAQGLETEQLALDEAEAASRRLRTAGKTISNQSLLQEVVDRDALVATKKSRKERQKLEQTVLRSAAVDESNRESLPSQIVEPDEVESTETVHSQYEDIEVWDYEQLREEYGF
T1 sequence (A0A8J0PCL5 entry or part of it, further chain): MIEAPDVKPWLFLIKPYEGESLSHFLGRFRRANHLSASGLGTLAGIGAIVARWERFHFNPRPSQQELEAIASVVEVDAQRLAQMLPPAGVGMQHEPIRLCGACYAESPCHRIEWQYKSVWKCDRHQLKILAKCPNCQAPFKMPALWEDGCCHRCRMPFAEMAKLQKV
T1 sequence (A0A8M0FGU0 entry or part of it, further chain): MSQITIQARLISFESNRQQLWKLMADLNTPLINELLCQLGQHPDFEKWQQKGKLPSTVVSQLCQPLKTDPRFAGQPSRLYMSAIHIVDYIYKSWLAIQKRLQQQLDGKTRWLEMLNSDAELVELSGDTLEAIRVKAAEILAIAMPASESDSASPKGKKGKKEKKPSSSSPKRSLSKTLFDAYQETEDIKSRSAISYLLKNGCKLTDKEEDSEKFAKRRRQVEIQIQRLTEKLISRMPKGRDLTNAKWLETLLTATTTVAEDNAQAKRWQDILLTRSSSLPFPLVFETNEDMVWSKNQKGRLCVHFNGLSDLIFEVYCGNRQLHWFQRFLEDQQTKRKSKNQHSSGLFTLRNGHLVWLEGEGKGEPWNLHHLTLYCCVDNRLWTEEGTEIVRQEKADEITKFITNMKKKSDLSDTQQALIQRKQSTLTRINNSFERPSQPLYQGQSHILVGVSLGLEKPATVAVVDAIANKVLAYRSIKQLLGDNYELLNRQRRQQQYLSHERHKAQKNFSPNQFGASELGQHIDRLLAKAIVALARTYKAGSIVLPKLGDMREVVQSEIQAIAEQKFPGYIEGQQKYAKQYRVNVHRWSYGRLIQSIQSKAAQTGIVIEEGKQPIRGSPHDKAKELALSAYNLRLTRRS

By stoichiometry N is commonly meant the number of molecules, sites or subunits per partner or assembly. Take “TnsC (ShCAST AAA+ regulator) (natural protein)”: in test [1], the stoichiometry N was 12 and 13.
TnsB R432A (enzyme): the on-target percentage of in vitro transposition (Illumina sequencing), in the absence of S15 in test [2] was under 6%.
Same read-out and setting: with TnsB Y439A (enzyme) the figure was under 6%.
For the compound `Nc1ncnc2c1ncn2[C@@H]1O[C@H](COP(=O)(O)OP(=O)(O)OP(=O)(O)O)[C@@H](O)[C@H]1O` [ATP], the cryo-EM structure result in test [3] was “This improved map demonstrates that ATP is bound to all protomers”.
With “TnsB (ShCAST transposase), wild type (enzyme)”, in test [2], the on-target percentage of in vitro transposition (Illumina sequencing), in the absence of S15 stood at 69% and the on-target percentage of in vitro transposition (Illumina sequencing), with S15 came to 99%. The stoichiometry N in test [4] was 4.
